The source of these data is publication PMC3366955.

For series [1] the following is noted: SEC-MALS.
For series [2], the target named is recombinant 42 kDa processed form of the P. falciparum merozoite surface protein 1, FVO allele (MSP1_(42)-FVO) (Plasmodium falciparum). Briefly: SEC-MALS. For orientation: Size exclusion chromatography separates by hydrodynamic size, large species first.

For “recombinant 42 kDa processed form of the P. falciparum merozoite surface protein 1, FVO allele (MSP1_(42)-FVO)”, the “percent of the total peak area as aggregate” value in series [1] was “approximately 1.7 MDa for 96% of the total peak area”.
One may read the stoichiometry N as a count of units in the complex or per binding partner. For “recombinant 42 kDa processed form of the P. falciparum merozoite surface protein 1, FVO allele (MSP1_(42)-FVO) (domain or fragment)”, in series [2], the percent of the protein as dimers was found to be 72%, the percent of the protein as multimers was 28% and the stoichiometry N amounted to 2.
